Measurements: patent US20080058636A1, “METHODS OF MYOCARDIAL IMAGING” (Epix Pharmaceuticals, Inc., priority 2005, published 2008)

What was measured:
[1] = target: rat collagen (acid soluble, type I, rat tail, Upstate 08-115) (rat) (UniProt P02454); experiment: dried collagen assay
[2] = target: human collagen type I (acid soluble, extracted from placenta, Sigma C7774) (human) (UniProt P02452); experiment: dried collagen assay
Note: test concentration or dose not given here.

Chain of human collagen type I (acid soluble, extracted from placenta, Sigma C7774) (human) (P02452 162-1218 limits assumed, chain 1 of 2): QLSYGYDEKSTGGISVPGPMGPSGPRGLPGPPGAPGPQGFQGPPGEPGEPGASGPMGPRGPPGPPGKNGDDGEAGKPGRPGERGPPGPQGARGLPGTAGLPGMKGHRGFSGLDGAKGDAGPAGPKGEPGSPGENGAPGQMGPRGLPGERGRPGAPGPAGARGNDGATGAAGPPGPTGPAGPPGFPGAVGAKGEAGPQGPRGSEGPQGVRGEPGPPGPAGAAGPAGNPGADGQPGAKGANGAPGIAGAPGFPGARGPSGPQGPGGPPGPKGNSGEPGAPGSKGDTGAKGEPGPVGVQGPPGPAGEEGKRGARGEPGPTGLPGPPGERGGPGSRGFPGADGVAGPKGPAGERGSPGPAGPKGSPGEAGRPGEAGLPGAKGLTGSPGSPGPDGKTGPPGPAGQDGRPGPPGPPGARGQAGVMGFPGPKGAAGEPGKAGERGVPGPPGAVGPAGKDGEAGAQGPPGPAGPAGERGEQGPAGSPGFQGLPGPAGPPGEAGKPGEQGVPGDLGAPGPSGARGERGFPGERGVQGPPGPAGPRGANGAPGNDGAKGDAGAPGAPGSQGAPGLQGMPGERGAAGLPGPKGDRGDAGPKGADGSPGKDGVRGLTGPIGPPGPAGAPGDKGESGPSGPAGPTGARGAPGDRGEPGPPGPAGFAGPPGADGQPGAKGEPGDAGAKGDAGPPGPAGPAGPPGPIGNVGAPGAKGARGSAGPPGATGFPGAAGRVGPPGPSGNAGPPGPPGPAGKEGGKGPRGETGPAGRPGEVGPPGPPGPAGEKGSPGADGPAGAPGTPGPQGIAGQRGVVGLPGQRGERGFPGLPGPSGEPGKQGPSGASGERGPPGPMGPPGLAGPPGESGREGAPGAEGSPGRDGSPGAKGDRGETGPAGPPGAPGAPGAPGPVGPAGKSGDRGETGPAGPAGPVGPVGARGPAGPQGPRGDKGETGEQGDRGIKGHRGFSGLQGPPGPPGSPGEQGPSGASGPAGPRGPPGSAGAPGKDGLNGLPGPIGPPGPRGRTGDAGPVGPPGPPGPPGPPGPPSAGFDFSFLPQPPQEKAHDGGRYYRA
Chain of human collagen type I (acid soluble, extracted from placenta, Sigma C7774) (human) (P08123 80-1119 limits assumed, chain 2 of 2, further chain): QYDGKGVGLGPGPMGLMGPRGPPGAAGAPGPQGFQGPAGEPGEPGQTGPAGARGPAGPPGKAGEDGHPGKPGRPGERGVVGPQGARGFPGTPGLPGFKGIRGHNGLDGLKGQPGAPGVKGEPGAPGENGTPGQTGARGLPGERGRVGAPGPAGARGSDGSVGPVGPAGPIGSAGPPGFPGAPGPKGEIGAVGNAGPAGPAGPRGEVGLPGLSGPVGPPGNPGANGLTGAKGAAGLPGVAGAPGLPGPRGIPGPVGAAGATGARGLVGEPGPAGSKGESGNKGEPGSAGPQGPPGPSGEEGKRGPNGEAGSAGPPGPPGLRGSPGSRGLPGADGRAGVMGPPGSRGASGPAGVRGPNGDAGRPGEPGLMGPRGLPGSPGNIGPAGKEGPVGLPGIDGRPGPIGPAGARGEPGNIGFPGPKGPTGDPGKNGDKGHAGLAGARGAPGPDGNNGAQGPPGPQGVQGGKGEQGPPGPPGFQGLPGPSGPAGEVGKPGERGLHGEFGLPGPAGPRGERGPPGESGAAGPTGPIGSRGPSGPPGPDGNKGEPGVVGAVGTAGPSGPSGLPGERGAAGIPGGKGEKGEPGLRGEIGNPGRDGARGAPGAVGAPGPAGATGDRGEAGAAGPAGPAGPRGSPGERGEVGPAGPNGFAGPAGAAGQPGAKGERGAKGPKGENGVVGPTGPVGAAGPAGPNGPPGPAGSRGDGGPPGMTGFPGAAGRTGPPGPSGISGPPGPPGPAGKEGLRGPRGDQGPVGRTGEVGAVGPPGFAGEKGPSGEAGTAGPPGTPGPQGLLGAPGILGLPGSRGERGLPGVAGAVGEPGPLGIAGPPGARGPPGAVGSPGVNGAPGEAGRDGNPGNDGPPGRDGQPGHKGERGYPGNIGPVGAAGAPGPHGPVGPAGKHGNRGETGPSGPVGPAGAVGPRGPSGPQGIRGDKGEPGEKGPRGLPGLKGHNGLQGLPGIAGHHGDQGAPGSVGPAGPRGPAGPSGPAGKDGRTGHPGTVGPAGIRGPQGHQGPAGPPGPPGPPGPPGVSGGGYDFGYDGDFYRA
Chain of rat collagen (acid soluble, type I, rat tail, Upstate 08-115) (rat) (P02454 152-1207, chain 1 of 2): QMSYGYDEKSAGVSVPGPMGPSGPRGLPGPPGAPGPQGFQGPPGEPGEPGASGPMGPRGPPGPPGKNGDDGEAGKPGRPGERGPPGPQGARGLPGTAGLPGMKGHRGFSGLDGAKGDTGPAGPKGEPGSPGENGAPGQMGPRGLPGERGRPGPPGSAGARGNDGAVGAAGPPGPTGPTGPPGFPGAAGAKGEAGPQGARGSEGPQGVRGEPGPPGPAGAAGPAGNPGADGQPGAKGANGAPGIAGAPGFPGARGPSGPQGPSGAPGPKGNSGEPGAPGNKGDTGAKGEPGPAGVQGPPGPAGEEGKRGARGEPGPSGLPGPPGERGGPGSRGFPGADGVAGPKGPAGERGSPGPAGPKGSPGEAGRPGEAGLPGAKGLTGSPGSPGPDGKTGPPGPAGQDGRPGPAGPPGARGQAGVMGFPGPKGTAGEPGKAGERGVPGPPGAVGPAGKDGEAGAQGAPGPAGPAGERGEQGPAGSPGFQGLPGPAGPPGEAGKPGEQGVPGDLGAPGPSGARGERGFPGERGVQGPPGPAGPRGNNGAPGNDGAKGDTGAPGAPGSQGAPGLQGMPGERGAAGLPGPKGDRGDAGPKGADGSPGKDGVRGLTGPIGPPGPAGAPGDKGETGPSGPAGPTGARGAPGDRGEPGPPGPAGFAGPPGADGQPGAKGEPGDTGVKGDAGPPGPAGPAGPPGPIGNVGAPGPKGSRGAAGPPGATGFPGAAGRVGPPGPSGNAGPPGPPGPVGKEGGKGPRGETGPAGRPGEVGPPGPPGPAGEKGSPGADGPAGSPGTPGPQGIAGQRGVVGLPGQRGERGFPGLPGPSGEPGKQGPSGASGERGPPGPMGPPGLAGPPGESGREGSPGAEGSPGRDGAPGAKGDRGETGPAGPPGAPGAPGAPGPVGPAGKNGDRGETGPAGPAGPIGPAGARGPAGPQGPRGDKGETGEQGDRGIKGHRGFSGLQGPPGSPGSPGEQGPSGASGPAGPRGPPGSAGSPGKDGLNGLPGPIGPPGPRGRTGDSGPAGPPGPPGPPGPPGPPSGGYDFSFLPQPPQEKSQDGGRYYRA
Chain of rat collagen (acid soluble, type I, rat tail, Upstate 08-115) (rat) (P02466 86-1125, chain 2 of 2, further chain): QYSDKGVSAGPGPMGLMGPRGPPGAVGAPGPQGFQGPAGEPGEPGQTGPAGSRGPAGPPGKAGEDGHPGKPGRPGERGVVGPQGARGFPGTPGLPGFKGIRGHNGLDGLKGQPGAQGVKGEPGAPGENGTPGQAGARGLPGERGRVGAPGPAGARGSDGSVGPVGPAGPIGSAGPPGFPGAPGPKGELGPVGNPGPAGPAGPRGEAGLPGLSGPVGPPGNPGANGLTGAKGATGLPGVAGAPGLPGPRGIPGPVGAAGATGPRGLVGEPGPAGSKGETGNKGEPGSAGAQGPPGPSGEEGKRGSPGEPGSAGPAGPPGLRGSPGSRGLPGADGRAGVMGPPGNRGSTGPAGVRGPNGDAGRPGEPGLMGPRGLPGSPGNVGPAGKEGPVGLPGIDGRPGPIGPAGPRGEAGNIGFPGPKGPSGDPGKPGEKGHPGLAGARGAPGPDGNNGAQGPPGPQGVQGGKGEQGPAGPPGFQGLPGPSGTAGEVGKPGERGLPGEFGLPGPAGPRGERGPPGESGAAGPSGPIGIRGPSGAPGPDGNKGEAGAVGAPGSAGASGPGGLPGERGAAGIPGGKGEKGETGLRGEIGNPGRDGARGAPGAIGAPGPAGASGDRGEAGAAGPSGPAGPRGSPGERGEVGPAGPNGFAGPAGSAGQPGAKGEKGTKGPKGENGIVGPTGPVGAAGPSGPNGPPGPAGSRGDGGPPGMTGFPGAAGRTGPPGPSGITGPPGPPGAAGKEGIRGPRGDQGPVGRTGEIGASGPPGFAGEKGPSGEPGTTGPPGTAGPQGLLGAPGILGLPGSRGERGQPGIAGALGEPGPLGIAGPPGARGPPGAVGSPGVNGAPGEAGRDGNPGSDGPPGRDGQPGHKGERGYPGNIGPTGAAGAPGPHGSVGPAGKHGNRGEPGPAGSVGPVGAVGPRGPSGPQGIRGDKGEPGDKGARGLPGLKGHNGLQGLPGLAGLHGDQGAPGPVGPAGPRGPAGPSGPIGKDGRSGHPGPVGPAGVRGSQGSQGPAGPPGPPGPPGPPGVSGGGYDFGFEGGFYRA

% Collagen Binding [1]: 63%
% Collagen Binding [2]: 73%
Binder: DWTCSLDEYTWHCNYE [SEQ ID NO: 183]
